In this test the target is HLA-A*02:01 (Homo sapiens, UniProt P04439, D140Y/D185E/D98H/E176V/E277Q/G131W/G231S/I119V/I121R/I166T/I218V/L300P/L318F/N151K/N90K/P208A/P217A/Q86G/Q94H/R138H/R169H/T345S). As to the kind of experiment: MHC binding assay (UV-ligand exchange, anti-β2m ELISA). Particulars: peptide exchange yield, binding to HLA-A*02:01. An excerpt:
Candidate peptides for T cell based therapies according to the present invention were further tested for their MHC binding capacity (affinity). The individual peptide-MHC complexes were produced by UV-ligand exchange, where a UV-sensitive peptide is cleaved upon UV-irradiation and exchanged with the peptide of interest as analyzed. Only peptide candidates that can effectively bind and stabilize the peptide-receptive MHC molecules prevent dissociation of the MHC complexes. To determine the yield of the exchange reaction, an ELISA was performed based on the detection of the light chain (β2m) of stabilized MHC complexes. The assay was performed as generally described in Rodenko et al. (Rodenko et al., 2006).
96 well MAXISorp plates (NUNC) were coated over night with 2 μg/ml streptavidin in PBS at room temperature, washed 4× and blocked for 1 h at 37° C. in 2% BSA containing blocking buffer. Refolded HLA-A*02:01/MLA-001 monomers served as standards, covering the range of 15-500 ng/ml. Peptide-MHC monomers of the UV-exchange reaction were diluted 100-fold in blocking buffer. Samples were incubated for 1 h at 37° C., washed four times, incubated with 2 μg/ml HRP conjugated anti-β2m for 1 h at 37° C., washed again and detected with TMB solution that is stopped with […]. Absorption was measured at 450 nm. Candidate peptides that show a high exchange yield (preferably higher than 50%, most preferred higher than 75%) are generally preferred for a generation and production of antibodies or fragments thereof, and/or T cell receptors or fragments thereof, as they show sufficient avidity to the MHC molecules and prevent dissociation of the MHC complexes.
With “1 (ILDSTTIEI; peptide displayed by HLA-A*02) [compound 1]”, the Peptide exchange entry was “++++ (≥75% = ++++)”. Under “2 (RLLEGDFSL; peptide displayed by HLA-A*02) [compound 2]” stands “++++ (≥75% = ++++)”; under “4 (YVWDRTELL; peptide displayed by HLA-A*02) [compound 4]”, “++++ (≥75% = ++++)”; under “5 (ALPQFFNDV; peptide displayed by HLA-A*02) [compound 5]”, “++++ (≥75% = ++++)”. The same measure for “9 (SLDDSLNEL; peptide displayed by HLA-A*02) [compound 9]”: “+++ (≥50% = +++)”. Regarding “10 (FLGEDISNFL; peptide displayed by HLA-A*02) [compound 10]”, the Peptide exchange result is listed as “++++ (≥75% = ++++)”.

For the substance “11 (GLVDGSSVTV; peptide displayed by HLA-A*02) [compound 11]”, the Peptide exchange entry is on record as “++++ (≥75% = ++++)”. Under “12 (FVDEHTIDI; peptide displayed by HLA-A*02) [compound 12]” stands “+++ (≥50% = +++)”; under “13 (VLMDGTLKQV; peptide displayed by HLA-A*02) [compound 13]”, “++++ (≥75% = ++++)”; under “14 (YIYDGKDMSSL; peptide displayed by HLA-A*02) [compound 14]”, “+++ (≥50% = +++)”. Under “15 (VLDDTLVIF; peptide displayed by HLA-A*02) [compound 15]” stands “+++ (≥50% = +++)”; under “16 (KLISDMGKDVSA; peptide displayed by HLA-A*02) [compound 16]”, “+++ (≥50% = +++)”.

On to “17 (NVDSTILNL; peptide displayed by HLA-A*02) [compound 17]”, for which the Peptide exchange entry is reported as “++++ (≥75% = ++++)”.

Regarding “18 (ILDEAKDISF; peptide displayed by HLA-A*02) [compound 18]”, the Peptide exchange result was “+++ (≥50% = +++)”. Under “19 (RLLDTTDVYLL; peptide displayed by HLA-A*02) [compound 19]” stands “++++ (≥75% = ++++)”. Take “20 (SLFAYPLPDV; peptide displayed by HLA-A*02) [compound 20]”: the Peptide exchange entry is reported as “++++ (≥75% = ++++)”. Under “21 (FLNLFDHTL; peptide displayed by HLA-A*02) [compound 21]” stands “++++ (≥75% = ++++)”; under “22 (HMIDLTIHL; peptide displayed by HLA-A*02) [compound 22]”, “+++ (≥50% = +++)”. Consider “23 (FLGPIVDL; peptide displayed by HLA-A*02) [compound 23]”, for which the Peptide exchange entry is listed as “++++ (≥75% = ++++)”. The same measure for “24 (QLLGRDISL; peptide displayed by HLA-A*02) [compound 24]”: “++++ (≥75% = ++++)”; for “25 (FMNDRSFIL; peptide displayed by HLA-A*02) [compound 25]”: “++++ (≥75% = ++++)”. “26 (ILYDGSNIQL; peptide displayed by HLA-A*02) [compound 26]”: the Peptide exchange result is on record as “++++ (≥75% = ++++)”. Under “27 (YLFEDISQL; peptide displayed by HLA-A*02) [compound 27]” stands “++++ (≥75% = ++++)”. In the case of “28 (FLLDGTDMFHM; peptide displayed by HLA-A*02) [compound 28]”, the Peptide exchange entry was “+++ (≥50% = +++)”. The same measure for “29 (KLLDLTVRI; peptide displayed by HLA-A*02) [compound 29]”: “++++ (≥75% = ++++)”; for “30 (QLMEKVQDV; peptide displayed by HLA-A*02) [compound 30]”: “+++ (≥50% = +++)”.

As to “31 (TLIDATWLV; peptide displayed by HLA-A*02) [compound 31]”, the Peptide exchange result was “++++ (≥75% = ++++)”. For “32 (ALADLTGTVVNL; peptide displayed by HLA-A*02) [compound 32]”, the Peptide exchange result is on record as “++++ (≥75% = ++++)”. The same measure for “33 (ILFDLTHRV; peptide displayed by HLA-A*02) [compound 33]”: “++++ (≥75% = ++++)”; for “34 (SLLDGSESAKL; peptide displayed by HLA-A*02) [compound 34]”: “++++ (≥75% = ++++)”.

“35 (SLRDGTEVV; peptide displayed by HLA-A*02) [compound 35]”: the Peptide exchange entry is “+++ (≥50% = +++)”. Under “36 (SLYDFTGEQMAA; peptide displayed by HLA-A*02) [compound 36]” stands “+++ (≥50% = +++)”. The same measure for “37 (AIDDTAARL; peptide displayed by HLA-A*02) [compound 37]”: “+++ (≥50% = +++)”; for “38 (AVDGTDARL; peptide displayed by HLA-A*02) [compound 38]”: “+++ (≥50% = +++)”; for “39 (AVFDQTVTVI; peptide displayed by HLA-A*02) [compound 39]”: “+++ (≥50% = +++)”. As to “40 (FLDQTDETL; peptide displayed by HLA-A*02) [compound 40]”, the Peptide exchange entry is “+++ (≥50% = +++)”. The same measure for “41 (FLDTSTADV; peptide displayed by HLA-A*02) [compound 41]”: “++++ (≥75% = ++++)”; for “42 (IQDTSHLAV; peptide displayed by HLA-A*02) [compound 42]”: “+++ (≥50% = +++)”. Under “43 (KLLNDLTSI; peptide displayed by HLA-A*02) [compound 43]” stands “++++ (≥75% = ++++)”; under “44 (LLDATHQI; peptide displayed by HLA-A*02) [compound 44]”, “++++ (≥75% = ++++)”. Under “45 (SLFDDSFSL; peptide displayed by HLA-A*02) [compound 45]” stands “++++ (≥75% = ++++)”; under “46 (SLSDVSQAV; peptide displayed by HLA-A*02) [compound 46]”, “+++ (≥50% = +++)”. For the substance “48 (AIYHDITGISV; peptide displayed by HLA-A*02) [compound 48]”, the Peptide exchange result is “+++ (≥50% = +++)”.

Turning to “49 (ALDDYTITF; peptide displayed by HLA-A*02) [compound 49]”, the Peptide exchange entry is given as “++++ (≥75% = ++++)”. The same measure for “50 (ALYDSTRELL; peptide displayed by HLA-A*02) [compound 50]”: “++++ (≥75% = ++++)”.

For the substance “51 (HLCNHDVSL; peptide displayed by HLA-A*02) [compound 51]”, the Peptide exchange result is “++++ (≥75% = ++++)”. Under “52 (ILFDDSVFTL; peptide displayed by HLA-A*02) [compound 52]” stands “++++ (≥75% = ++++)”; under “53 (ILTDITGHDV; peptide displayed by HLA-A*02) [compound 53]”, “+++ (≥50% = +++)”. Under “54 (KLEERVYDV; peptide displayed by HLA-A*02) [compound 54]” stands “++++ (≥75% = ++++)”; under “55 (KTWDQSIAL; peptide displayed by HLA-A*02) [compound 55]”, “++++ (≥75% = ++++)”; under “56 (LLDSTAHLL; peptide displayed by HLA-A*02) [compound 56]”, “++++ (≥75% = ++++)”. Consider “57 (SLDISLPNL; peptide displayed by HLA-A*02) [compound 57]”, for which the Peptide exchange result is reported as “++++ (≥75% = ++++)”. The same measure for “58 (SQDASLLKV; peptide displayed by HLA-A*02) [compound 58]”: “+++ (≥50% = +++)”; for “59 (SQTDLSPAL; peptide displayed by HLA-A*02) [compound 59]”: “++++ (≥75% = ++++)”.

Regarding “60 (TLDITIVNL; peptide displayed by HLA-A*02) [compound 60]”, the Peptide exchange entry is “++++ (≥75% = ++++)”.

Take “61 (FISDFTMTI; peptide displayed by HLA-A*02) [compound 61]”: the Peptide exchange result is given as “++++ (≥75% = ++++)”. As for “62 (FLKDVTAQI; peptide displayed by HLA-A*02) [compound 62]”, the Peptide exchange entry is recorded as “++++ (≥75% = ++++)”.

For “63 (GLDRTQLVNV; peptide displayed by HLA-A*02) [compound 63]”, the Peptide exchange result is given as “++++ (≥75% = ++++)”. The same measure for “64 (ILFDPDNSSAL; peptide displayed by HLA-A*02) [compound 64]”: “++++ (≥75% = ++++)”; for “66 (LLDDQTVTF; peptide displayed by HLA-A*02) [compound 66]”: “+++ (≥50% = +++)”. Under “67 (LLDTTDVYL; peptide displayed by HLA-A*02) [compound 67]” stands “+++ (≥50% = +++)”.
